The target in this assay is cynomolgus monkey Factor B (cynomolgus monkey). Nature of the assay: ELISA; cynomolgus Factor B coated at 5 µg/mL, mAb in 3-fold dilutions from 10 µg/mL; EC50 by Prism according to the text, headed 'Binding Affinity (M)' on the sheet.

B1: anti-factor Bb monoclonal antibody M12 (antibody, V domains shown)
VH: EVQLQQSGPELVKPGASVKMSCKASGYSFTDYLMNWVKQSHGKSLEWIGRINPYNGDAFYNQRFKGKATLTVDKSSSTAHMELRSLTSEDSALYYCARLENDYGFTYWGQGTLVTVSA
VL: DIVMTQAAFSNPVTLGTSASISCSSSKSLLHSNGITYLYWYLQRPGQSPQLLIYRMSNLASGVPDRFSGSGSGTDFTLRISRVEAEDVGVYYCAQMLERPWTFGGGTKLEIK
Consider B1, for which the EC50 amounted to 5.56 nM.

For the origin of these results see patent publication US20240228599A1.
